Test results published in article PMC10145227.

How the values were obtained:
[1] = fibrin plate lysis area, t-PA standard; conditions: control: rDSPAα1
[2] = nanoDSF, F350/F330 ratio and scattering; conditions: control: rDSPAα1
[3] = purified protein yield from P. pastoris; conditions: control: rDSPAα1
[4] = S-2765 activity after 1 h at 30-90 °C or pH 3-12; conditions: control: rDSPAα1
[5] = ELISA time course after dosing; conditions: control: rDSPAα1
[6] = thrombus length, dry and wet weight; conditions: control: rDSPAα1
[7] = hindlimb vein bleeding time after dosing; conditions: control: rDSPAα1
[8] = ELISA, slope of concentration versus time; conditions: control: rDSPAα1
[9] = ratio of S-2765 Kcat/Km, fibrin/fibrinogen; conditions: control: rDSPAα1
[10] = plasma plasminogen ELISA, slope versus time; conditions: control: rDSPAα1
[11] = H&E thrombus section score (higher is worse); conditions: control: rDSPAα1
[12] = recanalization rate, FeCl3 carotid thrombosis; conditions: control: rDSPAα1
[13] = S-2765 hydrolysis kinetics, no cofactor; conditions: glycan lost; control: rDSPAα1
[14] = S-2765 hydrolysis kinetics, fibrin cofactor; conditions: control: rDSPAα1
[15] = S-2765 hydrolysis kinetics, fibrinogen cofactor; conditions: control: rDSPAα1
[16] = blood routine examination, 1 h after dosing; conditions: glycan gained; control: rDSPAα1

B1: DSPAα1: ANGlyα1 + U (protein)
parent chain: MVNTMKTKLLCVLLLCGAVFSLPRQETYRQLARGSRAYGVACKDEITQMTYRRQESWLRPEVRSKRVEHCQCDRGQARCHTVPVNSCSEPRCFNGGTCWQAVYFSDFVCQCPAGYTGKRCEVDTRATCYEGQGVTYRGTWSTAESRVECINWNSSLLTRRTYNGRMPDAFNLGLGNHNYCRNPNGAPKPWCYVIKAGKFTSESCSVPVCSKATCGLRKYKEPQLHSTGGLFTDITSHPWQAAIFAQNRRSSGERFLCGGILISSCWVLTAAHCFQESYLPDQLKVVLGRTYRVKPGEEEQTFKVKKYIVHKEFDDDTYNNDIALLQLKSDSPQCAQESDSVRAICLPEANLQLPDWTECELSGYGKHKSSSPFYSEQLKEGHVRLYPSSRCAPKFLFNKTVTNNMLCAGDTRSGEIYPNVHDACQGDSGGPLVCMNDNHMTLLGIISWGVGCGEKDVPGVYTKVTNYLGWIRDNMHL
In the case of B1, the “enzymatic_activity, percent_of_wt” value ([1]; glycan gained) is reported as “decreases”, the stability_or_folding ([2]; glycan gained) is reported as “no change” and the “expression_or_secretion, percent_of_wt” value ([3]; glycan gained) is reported as “no change”. For the same protein, the stability_or_folding ([4]; glycan gained) was “no change”.

B2: DSPAα1: QNGlyα1 (protein)
parent chain: MVNTMKTKLLCVLLLCGAVFSLPRQETYRQLARGSRAYGVACKDEITQMTYRRQESWLRPEVRSKRVEHCQCDRGQARCHTVPVNSCSEPRCFNGGTCWQAVYFSDFVCQCPAGYTGKRCEVDTRATCYEGQGVTYRGTWSTAESRVECINWNSSLLTRRTYNGRMPDAFNLGLGNHNYCRNPNGAPKPWCYVIKAGKFTSESCSVPVCSKATCGLRKYKEPQLHSTGGLFTDITSHPWQAAIFAQNRRSSGERFLCGGILISSCWVLTAAHCFQESYLPDQLKVVLGRTYRVKPGEEEQTFKVKKYIVHKEFDDDTYNNDIALLQLKSDSPQCAQESDSVRAICLPEANLQLPDWTECELSGYGKHKSSSPFYSEQLKEGHVRLYPSSRCAPKFLFNKTVTNNMLCAGDTRSGEIYPNVHDACQGDSGGPLVCMNDNHMTLLGIISWGVGCGEKDVPGVYTKVTNYLGWIRDNMHL
For B2, the “other: plasma D-dimer course in rats” value ([5]; glycan lost) was “increases”, the “other: plasma α2-AP concentration in rats” value ([5]; glycan lost) was “no change” and the “other: thrombolytic efficacy in rats” value ([6]; glycan lost) was “abolishes”. The “enzymatic_activity, percent_of_wt” value ([1]; glycan lost) was “abolishes”, the stability_or_folding ([2]; glycan lost) was “no change” and the “expression_or_secretion, percent_of_wt” value ([3]; glycan lost) was “decreases”. For the same protein, the “other: bleeding time in rats” value ([7]; glycan lost) was “increases”, the “other: plasma FDP rise in rats” value ([8]; glycan lost) was “decreases” and the “other: fibrin selectivity, other: ratio Fbn/Fbg” value ([9]; glycan lost) was “decreases, 0.700 vs 20.800”. The “other: plasminogen activation in rats” value ([10]; glycan lost) was “abolishes”, the “other: thrombolytic efficacy in rats, other: total score” value ([11]; glycan lost) was “decreases, 103.333 ± 0.816 vs 61.667 ± 1.966” and the “other: thrombolytic efficacy in rats, other: recanalized rats” value ([12]; glycan lost) was “abolishes, 0/8 vs 4/8”. For the same protein, the stability_or_folding ([4]; glycan lost) was “no change”.

B3: DSPAα1: QNGlyα1-2 (protein)
parent chain: MVNTMKTKLLCVLLLCGAVFSLPRQETYRQLARGSRAYGVACKDEITQMTYRRQESWLRPEVRSKRVEHCQCDRGQARCHTVPVNSCSEPRCFNGGTCWQAVYFSDFVCQCPAGYTGKRCEVDTRATCYEGQGVTYRGTWSTAESRVECINWNSSLLTRRTYNGRMPDAFNLGLGNHNYCRNPNGAPKPWCYVIKAGKFTSESCSVPVCSKATCGLRKYKEPQLHSTGGLFTDITSHPWQAAIFAQNRRSSGERFLCGGILISSCWVLTAAHCFQESYLPDQLKVVLGRTYRVKPGEEEQTFKVKKYIVHKEFDDDTYNNDIALLQLKSDSPQCAQESDSVRAICLPEANLQLPDWTECELSGYGKHKSSSPFYSEQLKEGHVRLYPSSRCAPKFLFNKTVTNNMLCAGDTRSGEIYPNVHDACQGDSGGPLVCMNDNHMTLLGIISWGVGCGEKDVPGVYTKVTNYLGWIRDNMHL
For B3, the “enzymatic_activity, percent_of_wt” value ([1]; glycan lost) was “decreases”, the stability_or_folding ([2]; glycan lost) was “no change” and the “expression_or_secretion, percent_of_wt” value ([3]; glycan lost) was “decreases”. For the same protein, the “other: fibrin selectivity, other: ratio Fbn/Fbg” value ([9]; glycan lost) was “decreases, 8.500 vs 20.800” and the stability_or_folding ([4]; glycan lost) was “no change”.

B4: DSPAα1: QNGlyα1-1 (protein)
parent chain: MVNTMKTKLLCVLLLCGAVFSLPRQETYRQLARGSRAYGVACKDEITQMTYRRQESWLRPEVRSKRVEHCQCDRGQARCHTVPVNSCSEPRCFNGGTCWQAVYFSDFVCQCPAGYTGKRCEVDTRATCYEGQGVTYRGTWSTAESRVECINWNSSLLTRRTYNGRMPDAFNLGLGNHNYCRNPNGAPKPWCYVIKAGKFTSESCSVPVCSKATCGLRKYKEPQLHSTGGLFTDITSHPWQAAIFAQNRRSSGERFLCGGILISSCWVLTAAHCFQESYLPDQLKVVLGRTYRVKPGEEEQTFKVKKYIVHKEFDDDTYNNDIALLQLKSDSPQCAQESDSVRAICLPEANLQLPDWTECELSGYGKHKSSSPFYSEQLKEGHVRLYPSSRCAPKFLFNKTVTNNMLCAGDTRSGEIYPNVHDACQGDSGGPLVCMNDNHMTLLGIISWGVGCGEKDVPGVYTKVTNYLGWIRDNMHL
In the case of B4, the “enzymatic_activity, percent_of_wt” value ([1]; glycan lost) is reported as “decreases”, the “enzymatic_activity, kcat_Km” value [13] is reported as “no change, 38.800 ± 0.780 vs 34.830 ± 2.350” and the stability_or_folding ([2]; glycan lost) is reported as “no change”. For the same protein, the “expression_or_secretion, percent_of_wt” value ([3]; glycan lost) was “decreases”, the “other: fibrin selectivity, other: ratio Fbn/Fbg” value ([9]; glycan lost) was “decreases, 1.100 vs 20.800” and the “enzymatic_activity, kcat_Km” value ([14]; glycan lost) was “decreases, 333.760 ± 20.680 vs 5883.440 ± 983.570”. The “enzymatic_activity, kcat_Km” value ([15]; glycan lost) was “no change, 292.580 ± 1.780 vs 282.240 ± 13.070” and the stability_or_folding ([4]; glycan lost) was “no change”.

B5: DSPAα1: ANGlyα1 + 2 (protein)
parent chain: MVNTMKTKLLCVLLLCGAVFSLPRQETYRQLARGSRAYGVACKDEITQMTYRRQESWLRPEVRSKRVEHCQCDRGQARCHTVPVNSCSEPRCFNGGTCWQAVYFSDFVCQCPAGYTGKRCEVDTRATCYEGQGVTYRGTWSTAESRVECINWNSSLLTRRTYNGRMPDAFNLGLGNHNYCRNPNGAPKPWCYVIKAGKFTSESCSVPVCSKATCGLRKYKEPQLHSTGGLFTDITSHPWQAAIFAQNRRSSGERFLCGGILISSCWVLTAAHCFQESYLPDQLKVVLGRTYRVKPGEEEQTFKVKKYIVHKEFDDDTYNNDIALLQLKSDSPQCAQESDSVRAICLPEANLQLPDWTECELSGYGKHKSSSPFYSEQLKEGHVRLYPSSRCAPKFLFNKTVTNNMLCAGDTRSGEIYPNVHDACQGDSGGPLVCMNDNHMTLLGIISWGVGCGEKDVPGVYTKVTNYLGWIRDNMHL
With B5 the “other: plasma D-dimer course in rats” value ([5]; glycan gained) was “changes”, the “other: plasma PAI concentration in rats” value ([5]; glycan gained) was “no change” and the “other: plasma α2-AP concentration in rats” value ([5]; glycan gained) was “decreases”. For the same protein, the “other: thrombolytic efficacy in rats” value ([6]; glycan gained) was “decreases”, the “enzymatic_activity, percent_of_wt” value ([1]; glycan gained) was “decreases” and the stability_or_folding ([2]; glycan gained) was “no change”. The “expression_or_secretion, percent_of_wt” value ([3]; glycan gained) was “no change”, the “other: bleeding time in rats” value ([7]; glycan gained) was “no change” and the “other: plasma FDP rise in rats” value ([8]; glycan gained) was “increases”. For the same protein, the “other: fibrin selectivity, other: ratio Fbn/Fbg” value ([9]; glycan gained) was “decreases, 13.100 vs 20.800”, the “enzymatic_activity, kcat_Km” value ([14]; glycan gained) was “decreases, 3257.040 ± 561.250 vs 5883.440 ± 983.570, The Kcat/Km of ANGlyα1 + 2 was 79% of rDSPAα1 when fibrin was used as a cofactor” and the “other: platelet count in rats, other: PLT” value [16] was “no change, 712.667 ± 16.010 vs 724.333 ± 50.817”. For the same protein, the “other: plasminogen activation in rats” value ([10]; glycan gained) was “decreases”, the “other: thrombolytic efficacy in rats, other: total score” value ([11]; glycan gained) was “decreases, 92.500 ± 1.049 vs 61.667 ± 1.966” and the “other: thrombolytic efficacy in rats, other: recanalized rats” value ([12]; glycan gained) was “decreases, 3/8 vs 4/8”. For the same protein, the “enzymatic_activity, kcat_Km” value ([15]; glycan gained) was “decreases, 248.960 ± 6.330 vs 282.240 ± 13.070” and the stability_or_folding ([4]; glycan gained) was “no change”.
